Experiment [1] concerns the target protein expressed by the recombinant baculovirus clone containing DEN-2 prME genes (ACNPV-prME) (dengue 2 virus). In words: antigen dot blot, extract of infected High-5 cells, mAb 1:100, 125I goat anti-mouse immunoglobulin.
Experiment [2] concerns the target dengue 2 virus recombinant envelope glycoprotein (rEgp) expressed by baculovirus (dengue 2 virus (strain PR 159)) (UniProt P12823). The description is as above.
Experiment [3] concerns the target native envelope glycoprotein (Egp) on purified DEN-2 virus (dengue 2 virus) (UniProt P14340). In words: antigen dot blot, purified DEN-2 virus, mAb 1:100, 125I goat anti-mouse immunoglobulin.
Experiment [4] deals with protein extracted from High-5 cells infected with wild-type baculovirus. As to the kind of experiment: antigen dot blot, negative control extract of wild-type baculovirus infected High-5 cells, mAb 1:100.
Experiment [5] concerns the target dengue 2 virus recombinant envelope glycoprotein (rEgp) expressed by baculovirus (dengue 2 virus (strain PR 159)) (UniProt P12823). As to the kind of experiment: particle fluorescence assay (PFCIA), FITC-labeled mAb on antigen-coated polystyrene beads, pH 5.0, lysate of cells infected with the E-protein recombinant baculovirus.
Experiment [6] deals with native envelope glycoprotein (Egp) on purified DEN-2 virus (dengue 2 virus) (UniProt P14340). As to the kind of experiment: particle fluorescence assay (PFCIA), FITC-labeled mAb on antigen-coated polystyrene beads, pH 5.0, purified DEN-2 virus.
The target of experiment [7] is dengue 2 virus recombinant envelope glycoprotein (rEgp) expressed by baculovirus (dengue 2 virus (strain PR 159)) (UniProt P12823). In words: particle fluorescence assay (PFCIA), FITC-labeled mAb on antigen-coated polystyrene beads, pH 5.0, partially-purified recombinant E protein.

Reactivity with antigen (cpm) and Binding affinity data for two substances are collected here from patent publication US7265215.

monoclonal antibody 3H5: the Reactivity with antigen (cpm) in experiment [1] is 10100 cpm; in experiment [2], 13600 cpm; in experiment [3], 7500 cpm; in experiment [4] it was 1400 cpm.
With monoclonal antibody 4G2, the Binding affinity is 2.9e-06 in experiment [5], 1.3e-06 in experiment [6] and 2.3e-06 in experiment [7]. Further, the Reactivity with antigen (cpm) in experiment [1] came to 5000 cpm; in experiment [2], 8500 cpm; in experiment [3], 16800 cpm; in experiment [4] it was 1000 cpm.
